Patent publication US6087121A, “Chemiluminescent detection of heme proteins in biological samples” (Mayo Foundation for Medical Education and Research, priority 1999, dated 2000)
Where “and” joins values, the source holds several entries; their conditions need not be identical. Equal values may be shown once.

What was measured:
RBC = test: Effectiveness of lysing agents in RBC assay; type: cell-based, human; settings: saponin 0.2 mg/mL, 30 second time period; mellitin 0.85 mg/mL; CTAC 0.1%
Experimental: (§1) Fresh urine specimens were obtained in routine commercial collection vessels. The specimens were, either, analyzed immediately or stored at 4° C. until analysis. The urine samples were prepared for analysis by adding CTAC to produce a 0.1% solution, unless otherwise noted, in order to lyse the erythrocytes, thereby releasing hemoglobin. The assays were performed in a 75×12 mm polystyrene tube. The assay solutions were prepared by adding to each tube 294 μL of high ionic strength buffer, 5.0 μL of the prepared urine samples or standards, and […] of substrate (0.4 mM solution of 7-DNH), unless otherwise noted. […] The standard curve was obtained by plotting chemiluminescence emission in Relative Light Units (RLU) versus Hb concentration (μg/mL) or number of RBCs (#RBC/high power field (hpf)). Cell counts were determined with the Yellow Iris® instrument and confirmed by a manual hemocytometer count.

MPO [1] = target: T1, MPO (Homo sapiens, UniProt P05164); test: Effects of potential interfering substances in WBC (MPO, PS-1) assay; type: biochemical; settings: level giving signal equal to 5 WBC/high power field; highest tested: hemoglobin 250, myoglobin 200 μg/mL
T1 sequence (P05164 49-745): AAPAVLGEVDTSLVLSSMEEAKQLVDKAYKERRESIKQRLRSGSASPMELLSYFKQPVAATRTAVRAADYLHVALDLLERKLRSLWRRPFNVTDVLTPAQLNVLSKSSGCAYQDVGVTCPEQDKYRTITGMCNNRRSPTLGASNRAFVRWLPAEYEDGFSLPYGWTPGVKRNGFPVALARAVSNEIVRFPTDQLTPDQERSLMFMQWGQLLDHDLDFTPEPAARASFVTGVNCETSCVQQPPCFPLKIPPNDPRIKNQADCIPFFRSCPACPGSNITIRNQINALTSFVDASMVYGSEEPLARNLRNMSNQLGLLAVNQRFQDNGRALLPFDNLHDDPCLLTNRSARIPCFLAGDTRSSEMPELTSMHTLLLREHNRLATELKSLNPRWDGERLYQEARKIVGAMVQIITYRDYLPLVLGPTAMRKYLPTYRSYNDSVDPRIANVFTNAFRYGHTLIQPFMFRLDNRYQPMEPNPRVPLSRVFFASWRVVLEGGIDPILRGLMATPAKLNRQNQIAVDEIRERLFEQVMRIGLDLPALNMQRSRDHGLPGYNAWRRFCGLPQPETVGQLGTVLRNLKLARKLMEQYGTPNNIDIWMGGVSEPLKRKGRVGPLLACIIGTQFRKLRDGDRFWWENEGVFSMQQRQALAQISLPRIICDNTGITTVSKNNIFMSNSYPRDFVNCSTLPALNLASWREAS
Experimental: (§2) Urine samples were diluted 1:4 into distilled water to minimize inhibitory effects observed with hyperosmolal urines. Two μL of diluted urine were added to 12×75 mm polystyrene test tube containing 50 μL of the PS-1 solution. The tubes were incubated at 37° C. for 5 minutes. MPO activity was determined by chemiluminescence emission using a Turner TD-20e luminometer maintained at 37° C. Leukocyte counting was performed manually by using a hemacytometer chamber (Kova Glasstic slide, Hycor, Irvine, Calif.) on each urine sample to determine the number of cells/mL.
Several possible interfering substances were added to urine and tested for inhibitory effects. Several common medications were also tested for potential inhibitory effects. […] Hb at concentrations of >10 μg/mL and Mb at concentrations >2 μg/mL were detected by the PS-1 substrate as the chemiluminescence emission was above the normal urine background. Samples grossly populated with bacteria caused slight inhibition of the MPO activity. Urine samples may contain many epithelial cells, casts, crystals, and numerous artifacts but none of these appear to interfere with the chemiluminescence emission from MPO.

Hb [2] = test: Performance characteristics of Hb assay (precision, linearity, recovery, stability); set-up: species or system human; settings: with detergent and substrate
Experimental: Ultrafiltered urine was prepared from a pool of fresh urine specimens by ultrafiltration through Centriprep-10 at 3,000×g in a Beckman J2-HC centrifuge (Beckman Instruments, Calif.). This treatment separates all biomolecules with molecular weight greater than 10,000 daltons so that the ultrafiltered urine is devoid of Hemoglobin (Hb) and Myoglobin (Mb). Stock standards were prepared with the ultrafiltrate containing known quantities of, either purified Hb or washed, packed RBCS. A cell count of the stock RBC standard was determined by the Yellow IRIS® Automated Imaging System (Independent Research Imaging Systems, Chatsworth, Calif.). Cells in urine are imaged under laminar flow conditions. Up to 80 images of cells are captured using a high speed charged-coupled device camera. Cell images are then identified and quantified. […] All chemiluminescence measurements were determined using a Berthold AutoLumat, LB 953 (EG&G Berthold, Aliquippa, Pa.).
Fresh urine specimens were obtained in routine commercial collection vessels. The specimens were, either, analyzed immediately or stored at 4° C. until analysis. […] The emission of light was measured over five seconds following automatic injection of 300 μL of 5% hydrogen peroxide (pH 3.25). […] Cell counts were determined with the Yellow Iris® instrument and confirmed by a manual hemocytometer count. […]

MPO [3] = target: T1, MPO; test: Effects of potential interfering substances in WBC (MPO, PS-1) assay; type: biochemical; settings: Hb <10 μg/mL
Hb [4] = test: S/N ratios of different chemiluminescent substrates with Hb; type: biochemical, human
Experimental: (§3) Centricon ultrafiltration filters were obtained from Amicon (Daven, Mass.). Polystyrene tubes (5.0 mL volume, 75×12 mm) used for the assay were manufactured by Sarstedt (Arlington Heights, Ill.). The chemiluminescent substrate, 7-dimethylamino-naphthalene-1,2-dicarbonic acid-hydrazide (7-DNH) was purchased from Boehringer Mannheim (Indianapolis, Ind.). PS-1 acridan substrate (solution A and solution B) was obtained from Lumigen Inc. (Southfield, Mich.). […] Tween-20 and Sodium Chloride were purchased from Fisher Scientific (Fair Lawn, N.J.). General laboratory chemicals such as, boric acid, sodium acetate, Trizma base, HEPES, hydrogen peroxide (H2 O2) solution (30.0%), human hemoglobin, catalase, 6-amino-2,3-dihydro-1,4-phthallazinedione (4-aminophthalhydrazide), N-(4-Aminobutyl)-N-ethyl-isoluminol, Triton X-100, (3-[3-cholamidopropyl)dimethylammonio]-1-propanesulfonate) (CHAPS), hydrogen disulfite, methimazole, ofloxacin, ascorbic acid, ammonium chloride, EDTA, Hb, bilirubin, and lactoperoxidase (LPO) were purchased from Sigma Chemical Company (St. Louis, Mo.). Human heart myoglobin and myeloperoxidase were obtained from Calbiochem (La Jolla, Calif.) Thyroid peroxidase (TPO) was purchased from O.E.M. Concepts, Inc. (Toms River, N.J.). Eosinophil peroxidase was provided by Dr. Greipp (Mayo Clinic). Fresh EDTA anticoagulated blood was collected from donors showing no signs of sickness and washed with physiological saline to isolate RBC.
as §1
(§4) The substrate (7-DNH) and the ultrafiltered urine were prepared as described above. The kinetics of chemiluminescence was determined by monitoring the chemiluminescence signal over a 20 second time period following addition of the substrate (7-DNH) to ultrafiltered urine. Measurements were performed either in the presence or absence of Hb. Experiments performed in the absence of Hb provide background measurements in relative light units (RLU).

Mb = test: S/N ratios of different chemiluminescent substrates with Mb; type: biochemical, human; settings: signal integrated over first five seconds
Experimental: as §3, §1
The substrate (7-DNH) and the ultrafiltered urine were prepared as described above. The kinetics of chemiluminescence was determined by monitoring the chemiluminescence signal over a 20 second time period following addition of the substrate (7-DNH) to ultrafiltered urine. Measurements were performed either in the presence or absence of Hb. […]

Hb [5] = test: Chemiluminescence emission kinetics of 7-DNH with Hb; type: biochemical, human; settings: Hb in ultrafiltered urine, after H2O2
Experimental: as §4

leukocytes = test: Stability of leukocytes in urine with ofloxacin; type: cell-based; settings: 100 μg/ml ofloxacin, 4° C.
Experimental: (§5) Intra- and inter-assay imprecision was performed for MPO standards, WBC standards and 3 urine samples. Intra- and inter-assay imprecision tests were performed as described for the Hb assay in Example 7. The effect of time on the stability of enzyme activity in the leukocytes was examined. The effect of adding a quinoline antimicrobial agent, ofloxacin, was also studied with respect to its stabilization of the leukocytes.
Stability of leukocytes in the urine over time was improved by storing the urine samples at 4° C. The addition of 100 μg/ml of ofloxacin kept the leukocytes intact up to 20 hours later when the urines were maintained at 4° C. (FIG. 14).

Hb [6] = test: Interference studies in Hb assay (7-DNH chemiluminescence); type: biochemical, human
Experimental: Numerous potential interfering substances, which either enhance or quench the signal generated by cyclic hydrazides, were evaluated. The effects of these potentially interfering substances on light emission was investigated at varying concentrations of the interfering composition. Assays were performed using serial dilutions of the potential interfering compositions in ultrafiltered urine at a fixed concentration of Hb. Comparisons of chemiluminescence emission were made between a reference solution (Hb in ultrafiltered urine) without added interfering compositions and solutions with added interferant.
Generally, the value of 3 RBC per high power field is the normal cutoff point.
Bilirubin and uric acid were examined as a possible negative interfering compositions because of their chemical structure which may quench energy emitted.

MPO [7] = target: T1, MPO; test: Performance characteristics of WBC assay, MPO standard; settings: listed as MPO
Experimental: as §2, §5

MPO [8] = test: Effect of temperature/time on chemiluminescence emission from MPO with PS-1; type: biochemical
Experimental: as §2
The kinetics of chemiluminescence emission from MPO at 37° C. was followed over time using several urine samples diluted 4-fold in water (FIG. 11). […] Assays in Examples 10-16 were performed at 37° C., and chemiluminescence emission determined at 5 minutes.

Molecule: Mellitin: lysing agent
- effectiveness as lysing agent (RBC): nearly as effective as 0.1% CTAC

Molecule: Hemoglobin: human hemoglobin purchased from Sigma
- Interference (MPO [1]): > 10 µg/mL
- stability of Hb in the samples during the reaction (Hb [2]): up to 25 minutes
- interference with PS-1 assay (MPO [3]): did not interfere

Molecule: CN(C)c1ccc2ccc3c(=O)[nH][nH]c(=O)c3c2c1 [7-DNH, 7-dimethylamino-naphthalene-1,2-dicarbonic acid-hydrazide]
- sensitivity compared to other substrates tested (Hb [4]; by signal to noise ratio): most sensitive
- S/N for Hb (Hb [4]; signal integrated over first five seconds): 589
- S/N for Mb (Mb): 316
- time of peak emission (Hb [5]): 2 s

Molecule: CC1COc2c(N3CCN(C)CC3)c(F)cc3c(=O)c(C(=O)O)cn1c23 (stereo not drawn) [ofloxacin]
- leukocytes kept intact in urine (leukocytes): up to 20 hours

B1: Myeloperoxidase: myeloperoxidase obtained from Calbiochem (protein, UniProt P05164 165-745, looked up)
Myeloperoxidase: VTCPEQDKYRTITGMCNNRRSPTLGASNRAFVRWLPAEYEDGFSLPYGWTPGVKRNGFPVALARAVSNEIVRFPTDQLTPDQERSLMFMQWGQLLDHDLDFTPEPAARASFVTGVNCETSCVQQPPCFPLKIPPNDPRIKNQADCIPFFRSCPACPGSNITIRNQINALTSFVDASMVYGSEEPLARNLRNMSNQLGLLAVNQRFQDNGRALLPFDNLHDDPCLLTNRSARIPCFLAGDTRSSEMPELTSMHTLLLREHNRLATELKSLNPRWDGERLYQEARKIVGAMVQIITYRDYLPLVLGPTAMRKYLPTYRSYNDSVDPRIANVFTNAFRYGHTLIQPFMFRLDNRYQPMEPNPRVPLSRVFFASWRVVLEGGIDPILRGLMATPAKLNRQNQIAVDEIRERLFEQVMRIGLDLPALNMQRSRDHGLPGYNAWRRFCGLPQPETVGQLGTVLRNLKLARKLMEQYGTPNNIDIWMGGVSEPLKRKGRVGPLLACIIGTQFRKLRDGDRFWWENEGVFSMQQRQALAQISLPRIICDNTGITTVSKNNIFMSNSYPRDFVNCSTLPALNLASWREAS
- Level of Interference (in words) (Hb [6]; highest conc: ascorbic acid 10, bilirubin 10, Cu++/Mn++ 40, sodium azide 500 μg/mL, uric acid 1 mg/mL): only interfere at very high concentrations
- Level of Interference (Hb [6]; level producing a signal equivalent to 3 RBC per high power field, fixed Hb concentration): > 6.2 µg/mL
- CV%, MPO Standard (MPO [7]; Table 10, intra-assay precision, 0.01% Triton incorporated): 2.05% and 3.56% and 4.33% and 4.63%
- CV%, MPO Standard (MPO [7]; Table 11, 0.01% Triton incorporated): 6.36% and 8.39% and 8.26% and 5.50%
- change in RLU (constant chemiluminescence emission) (MPO [8]; 37° C., between 3 and 20 minutes): less than 5%
- time of maximum light emission (MPO [8]; room temperature): 15 min
